# B1: VHH_(NLRP1 PYD 1) (VHH)
# VHH: QVQLVESGGGLVEAGGSLRLSCAASGRTFSNYALSWFRQAPGKERELVAAISWSGDYTYYADSVKGRFTISRDNAKNTVYLQMHSLKPEDTAVYYCNADSRSGTYSPSSGSWGQGTQVTVSS
# notes: Alpaca nanobody raised against His-NLRP1^PYD, selected by phage display on GST-NLRP1^PYD; cloned into a pHEN6-based periplasmic vector with C-terminal HA-His6; also called VHHPYD 1; NLRP1^PYD nanobody 1; source: E. coli WK6, periplasmic extract, purified (Ni-NTA, desalting); not shown: HA, C-terminal, kept
# B2: VHH_(NLRP1 PYD) 2 (VHH)
# VHH: QVQLVESGGGLVQTGGSLRLSCVASGGTFSRFTMAWFRQAPGKEREFVAGVSWSGGLTHYSDSVKGRFTISRDNAKNTLYLQMSSLKPEDTAVYYCYGQSTVAGATIDYWGQGTQVTVSS
# notes: Alpaca nanobody raised against His-NLRP1^PYD, selected by phage display on GST-NLRP1^PYD; cloned into a pHEN6-based periplasmic vector with C-terminal HA-His6; also called VHHPYD 2; NLRP1^PYD nanobody 2; source: E. coli WK6, periplasmic extract, purified (Ni-NTA, desalting); not shown: HA, C-terminal, kept
# Target: T1, GST-NLRP1^PYD (Homo sapiens, UniProt Q9C000)
# T1 construct: NLRP1, human, pyrin domain (PYD), aa 1-92; Vector: customised destination vector based on pGEX-2T; also called GST-NRLP1^PYD; source: E. coli BL21, purified (glutathione resin, gel filtration)
# Test: ELISA; GST-NLRP1^PYD or GST in PBS immobilised on ELISA plates at 1 ug/ml overnight; serial tenfold dilutions of HA-tagged nanobodies in 10% FBS/PBS; detected with HRP-coupled anti-HA and TMB, absorption at 450 nm
# Conditions: both partners purified
# T1 sequence (Q9C000 1-92): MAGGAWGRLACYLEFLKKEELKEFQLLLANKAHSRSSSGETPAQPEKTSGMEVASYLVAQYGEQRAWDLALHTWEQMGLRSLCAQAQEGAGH
row,Binder,binding result
1,B1,binds
2,B2,binds

# — paper PMC9623368, “P38 kinases mediate NLRP1 inflammasome activation after ribotoxic stress response and virus infection” (The Journal of Experimental Medicine, 2022)
